Holding throughout (assay): high-throughput RNA pulldown from lysate on Ni-NTA beads; HRP: 50 mM Tris pH 8, 150 mM NaCl, 1 mM beta-mercaptoethanol, 50 ug/ml BSA, 3 ug/ml yeast RNA, 0.5% heparin; ITC and FP: Tris pH 8, 200 mM KCl, 5% glycerol; MST: 50 mM Tris pH 8, 200 mM NaCl, 1 mM DTT, BSA, heparin, 0.05% Tween 20
Settings in all cases: tags: N-terminal His-eGFP

Series [1] addresses T1, GFP-9S library array, motif 4 ND N98P;D124P (synthetic construct, N98P;D124P).
T1 chain: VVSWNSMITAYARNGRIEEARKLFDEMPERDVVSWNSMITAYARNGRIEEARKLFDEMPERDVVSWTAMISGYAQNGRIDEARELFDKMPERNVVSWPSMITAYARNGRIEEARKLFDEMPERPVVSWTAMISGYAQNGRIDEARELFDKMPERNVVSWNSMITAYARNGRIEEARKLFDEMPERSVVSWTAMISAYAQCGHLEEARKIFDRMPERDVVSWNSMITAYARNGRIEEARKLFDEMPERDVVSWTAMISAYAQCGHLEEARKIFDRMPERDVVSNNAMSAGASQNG

Series [2] addresses T2, GFP-9S library array, motif 4 ND N98K;D124S (synthetic construct, N98K;D124S).
T2 chain: T1 chain with P98K, P124S

Series [3] deals with T3, GFP-9S library array, motif 4 ND N98P;D124W (synthetic construct, N98P;D124W).
T3 chain: T1 chain with P124W

Series [4] deals with T4, GFP-9S library array, motif 4 ND N98K;D124K (synthetic construct, N98K;D124K).
T4 chain: T1 chain with P98K, P124K

Series [5] concerns the target T5, GFP-9S library array, motif 4 ND N98E;D124Y (synthetic construct, N98E;D124Y).
T5 chain: T1 chain with P98E, P124Y

Positions count from the first letter of the chain named.

Take AUUAUACGUGA (ssRNA) [IR-rpoA-U]: the Kd was found to be 561 nM in series [1] (label: 5' IRDye 800CW); 40.8 nM in series [2] (label: 5' IRDye 800CW); 81.9 nM in series [3] (label: 5' IRDye 800CW); 83.8 nM in series [4] (label: 5' IRDye 800CW); 480 nM in series [5] (label: 5' IRDye 800CW).

As for AUUAGACGUGA (ssRNA) [Cy5-rpoA-G], the Kd in series [1] (label: 5' Cy5) was 326 nM; in series [2] (label: 5' Cy5), 89.3 nM; in series [3] (label: 5' Cy5), 77.7 nM; in series [4] (label: 5' Cy5), 119 nM; in series [5] (label: 5' Cy5), 187 nM.

AUUAAACGUGA (ssRNA) [IR-rpoA-A]: the equilibrium dissociation constant (Kd) in series [1] (label: 5' IRDye 800CW) is 1420 nM; in series [2] (label: 5' IRDye 800CW), 120 nM; in series [3] (label: 5' IRDye 800CW), 44.6 nM; in series [4] (label: 5' IRDye 800CW) it was 254 nM; in series [5] (label: 5' IRDye 800CW), 450 nM.

With AUUACACGUGA (ssRNA) [Cy5-rpoA], the Kd in series [1] (label: 5' Cy5) was determined as 273 nM; in series [2] (label: 5' Cy5) it was 67.8 nM; in series [3] (label: 5' Cy5) it was 69.3 nM; in series [4] (label: 5' Cy5), 102 nM; in series [5] (label: 5' Cy5) it was 231 nM.

By Kd is commonly meant the free concentration of one partner at which half of the binding sites on the other are occupied at equilibrium, for simple one-to-one binding. Low values mean tighter binding, high ones weaker binding.
